Measured values reported in paper PMC10745484.

Biological target: recombinant Fe-S cluster assembly ATP-binding protein (SufC) (Streptococcus pneumoniae strain D39)
Test: SPR; Biacore X100; rSufC immobilised on a CM5 chip (1000 RU); plasminogen or BSA flowed at 6.25 to 100 nM, 25 °C, 100 mM HEPES pH 7.4, 150 mM NaCl, 3 mM EDTA, 0.005% surfactant P20; apparent constants

Substance: plasminogen from human plasma (natural protein)
- Kd: 79.5 nM
- koff: 0.00156 s⁻¹
- kon: 19600 M⁻¹ s⁻¹
